Experimental data as given in patent US20250026813A1 (published 2025).
Where a chain is given by its changes, count along the chain named.

B1: IMPI-054 (antibody, V domains shown)
VH: EVQLVESGGGLIQPGGSLRLSCAASGLTVSSNYMSWVRQAPGKGLEWVSIIYSGGSTYYADSVKGRFTISRDNSKNTLYLQMNSLRAEDTAVYYCARLGGYYYYGMDVWGQGTTVTVSS
VL: DIQMTQSPSSLSASVGERVTITCQASQDIRNYLNWYQKKPGKAPKLLIYDSSNLETGVPSRFSGSGSGTDFTFTISSLQPEDIATYYCQQYDNLPITFGQGTRLEIK
B2: IMPI-042 (antibody, V domains shown)
VH: B1 VH
VL: B1 VL with S65G
B3: IMPI-055 (antibody, V domains shown)
VH: QVQLVQSGAEVKKPGASVKVSCKASGYTFTSYDINWVRQATGQGLEWMGWMNPNSGNTGYAQKFQGRVTMTRDTSINTAYMELSSLRSEDTAVYFCARGGRYCSDVTCYSGEPFDYWGQGTLVTVSS
VL: EIMLTQSPDFQSVTPKEKVTITCRASQSIGSSLHWYQQKPDQSPKLLIKFASQSISGVPSRFSGSGSGTDFTLTINSLEAEDAAAYYCHQSSSLPHTFGPGTKVEIK
B4: IMPI-029 (antibody, V domains shown)
VH: EVQLVESGGGLIQPGGSLRLSCAASGVTVSSNYMNWVRQAPGKGLEWVSVIYSGGSTYYADSVKGRFTISRDNSKNTLFLQMNSLRAEDSAVYYCARDLGPYGVDVWGQGTTVTVSS
VL: DIQLTQSPSFLSASVGDRVTITCWASQGISSYLAWYQQKPGKAPKLLIYAASTLQSGVPSRFSGSGSGTEFTLTISSLQPEDFATYYCQELNSYPLTFGQGTRLEIK
B5: IMPI-037 (antibody, V domains shown)
VH: not shown
VL: B4 VL with S30N, A84T, E90Q, L91F, S93D, L96R, Q100P, R103K, L104V
B6: IMPI-017 (antibody, V domains shown)
VH: B4 VH with S25A, V27L, A40V, F79Y, S90T, P101T, Y102L, V104M
VL: B4 VL with S31T, E90Q, P95L, L96P, R103K, L104V
B7: IMPI-047 (antibody, V domains shown)
VH: B4 VH with V27F, F79Y, A87T, S90T, G100V, P101A, V104M
VL: B4 VL with L46V, E90L, Y94N, Q100G, R103K, L104V
B8: IMPI-017 (antibody, V domains shown)
VH: B4 VH with S25A, V27L, A40V, F79Y, S90T, P101T, Y102L, V104M
VL: B4 VL with S31T, E90Q, P95L, L96P, R103K, L104V
B9: IMPI-052 (antibody, V domains shown)
VH: B4 VH with W47G, S56T, F79Y, S90T, L99T, G100V, P101V, V104M
VL: B4 VL with A50T, E90Q, Q100G, R103K, L104V
B10: IMPI-037 (antibody, V domains shown)
VH: not shown
VL: B4 VL with S30N, A84T, E90Q, L91F, S93D, L96R, Q100P, R103K, L104V
B11: IMPI-005 (antibody, V domains shown)
VH: B4 VH with V27F
VL: B4 VL
B12: IMPI-002 (antibody, V domains shown)
VH: B4 VH with N35S, W47G, F79Y, S90T, L99T, G100V, P101V, V104M
VL: B4 VL with E90Q, Q100G, R103K, L104V
B13: IMPI-021 (antibody, V domains shown)
VH: B4 VH with N35S, Y58F, F79Y, S90T, G100S, P101Y, V104M
VL: B4 VL with R61K, E90Q, L96C, T97S, R103K
B14: IMPI-021 (antibody, V domains shown)
VH: B4 VH with N35S, Y58F, F79Y, S90T, G100S, P101Y, V104M
VL: B4 VL with R61K, E90Q, L96C, T97S, R103K
B15: IMPI-047 (antibody, V domains shown)
VH: B4 VH with V27F, F79Y, A87T, S90T, G100V, P101A, V104M
VL: B4 VL with L46V, E90L, Y94N, Q100G, R103K, L104V
B16: IMPI-005 (antibody, V domains shown)
VH: B4 VH with V27F
VL: B4 VL
B17: IMPI-029 (antibody, V domains shown)
VH: B4 VH
VL: B4 VL
B18: IMPI-056 (antibody, V domains shown)
VH: B4 VH with V27L, G44K, Y58F, K64R
VL: B4 VL with E90Q
B19: YANG-1119 (antibody, V domains shown)
VH: EVQLVESGGGLVKPGGSLRLSCAASGFTFSSYSMNWVRQAPGKGLEWVSSISTGSSYIFYADSVKGRFTISRDNAKNSLYLQMNSLRAEDTAVYYCAKTGDLPFFDYWGQGTLVTVSS
VL: QSALTQPASVSGSPGQSITISCTGTSSDVGRYNYVSWYQQHPGKAPKLMIYEVSNRPSGVSNRFSGSKSGNTASLTISGLQAEDEADYYCSSYTSSSTMVFGGGTKLTVL
B20: YANG-1113 (antibody, V domains shown)
VH: B19 VH with I70M, L113P
VL: B19 VL
B21: YANG-1115 (antibody, V domains shown)
VH: B19 VH
VL: B19 VL with T108S
B22: YANG-1117 (antibody, V domains shown)
VH: B19 VH with M34V, A97V
VL: B19 VL with S26R, S54T, S95N, S96N
B23: YANG-1114 (antibody, V domains shown)
VH: B19 VH with Q3H, G8V
VL: B19 VL
B24: YANG-1118 (antibody, V domains shown)
VH: B19 VH with S33A, M34L, N77H, Y80S
VL: B19 VL with S91I
B25: YANG-1116 (antibody, V domains shown)
VH: B19 VH with A23E, T28N, S30R, S33A, M34L, Y80S
VL: B19 VL with S91I
B26: YANG-1111 (antibody, V domains shown)
VH: EVQLVESGGGLIQPGGSLRLSCAASGFTFSSYSINWVRQAPGKGLEWVSFISGSSTTIYYADSVKGRFTISRDSAKNSLYLQMNSLRDEDTAVYYCARGLRSSIAPRPDYFDSWGQGILVTVSS
VL: SYVLTQPPSVSVAPGKTARITCGGNNIGSKGVHWYQQKPGQAPVLVIYYDSDRPSGIPERFSGSNSGNTATLTISRVEAGDEADYSCQVWDSSSDHPVFGGGTKLTVQ
B27: IMPI-006 (antibody, V domains shown)
VH: QLQLQESGPGLVKPSETLSLTCTVSGGSISNSNYYWGWIRQPPGKGLEWIGSIYYSGRTYYNPSLKSRVTISVDTSKNQFSLKLSSVTAADTAVYYCARMGLLWFGEFYGMDVWGQGTTVTVSS
VL: DIQMTQSPSSLSASVGDRVTITCRASQGISSWLAWYQQKPEKAPKSLIYDASSLQRGVPSRFSGSGSGTDFTLTISSLQPEDFASYYCQQYNSYPLTFGGGTRVEIK
B28: IMPI-022 (antibody, V domains shown)
VH: EVQLVESGGGLVQPGRSLRLSCAASGFTFDDYAMHWVRQAPGKGLEWVSGITWNSGSIGYADSVKGRFTISRDNAKNSLYLHMNSLRVEDTALYYCAKDLQGDYYYYGVDVWGQGTTVTVSS
VL: AIQLTQSPSSLSASVGDRVTITCRASQGISSALAWYQQKPGKAPKLLLYDASSLVSGVPSRFSGSRSGTDFTLTISSLQPEDFATYYCQQFISYPLTFGGGTRVEIK
B29: IMPI-059 (antibody, V domains shown)
VH: EVQLVESGGGLIQPGGSLRLSCAASGFTVSSIYMSWVRQAPGKGLEWVSIIYSRGSTDYADSVKGRFTISRDISKNTLYLQMNSLRAEDTAVYYCARDGTMVRGVHAFDIWGQGTMVTVSS
VL: DIQMTQSPPSLSASIGDRVTITCQASQDISNYLNWYQQKPGKAPKLLIYDASNLETGVPSRFSGSGSGTDFTLTISNLQPEDIVTYYCQQYDNLPSSFGQGTKLEIK
B30: YANG-1112 (antibody, V domains shown)
VH: QITLKESGPTLVKPTQTLTLTCTFSGFSLSTGGVAVGWIRQPPGKALEWLAIIYWDDDKRYSPSLKSRLTITKDTSKNQVVLTMTNMDPVDTATYYCAHWGKDSFDIWGQGTMVTVSS
VL: SYELTQPPSVSVSPGQTARITCSGDALPRKYAYWYQQKSGQAPVLVIYEDNNRPSGIPERFSGSSSGTTATLTVSGAQVEDEADYYCYSTDTSGYVVFGGGTKLTVL

Key:
[1] = biological target: RBD domain of the spike protein of SARS-CoV-2 virus (Acro Biosystems SPD-C52H3) (SARS-CoV-2, UniProt P0DTC2 319-537)
[2] = biological target: SARS-CoV-2 spike protein receptor binding domain (RBD) (SARS-CoV-2, UniProt P0DTC2 319-541)
[3] = biological target: SARS-CoV-2 spike protein N-terminal domain (NTD) (SARS-CoV-2, UniProt P0DTC2 14-305)
[4] = biological target: T1, RBD domain of the spike protein of SARS-CoV-2 virus (Acro Biosystems SPD-C52H3) (SARS-CoV-2, UniProt P0DTC2 319-537); assay: Affinity (SPR) by Octet; antigen not named, taken from the epitope column
T1 construct: domain: RBD domain

| Binder | IC50 [1] | Kd [4] | other results |
| --- | --- | --- | --- |
| B1 | 2.28 nM | – | – |
| B2 | 5.54 nM | – | – |
| B3 | 3.39 nM | – | – |
| B4 | 1.26 nM | – | – |
| B5 | – | – | Kd [2]: 22.3 nM |
| B6 | – | – | Kd [2]: 2.25 nM; Kd [3]: 1050 nM |
| B7 | 3.36 nM | – | – |
| B8 | 0.832 nM | – | – |
| B9 | 4.85 nM | – | – |
| B10 | 7.76 nM | – | – |
| B11 | – | – | Kd [2]: 24.9 nM |
| B12 | 8.15 nM | – | – |
| B13 | – | – | Kd [2]: 14.7 nM |
| B14 | 4.87 nM | – | – |
| B15 | – | – | Kd [2]: 6.65 nM; Kd [3]: 2320 nM |
| B16 | 3.18 nM | – | – |
| B17 | – | – | Kd [2]: 0.446 nM; Kd [3]: 219 nM |
| B18 | 1.93 nM | – | – |
| B19 | – | < 0.1 nM | – |
| B20 | – | < 0.1 nM | – |
| B21 | – | < 0.1 nM | – |
| B22 | – | < 0.1 nM | – |
| B23 | – | < 0.1 nM | – |
| B24 | – | < 0.1 nM | – |
| B25 | – | < 0.1 nM | – |
| B26 | – | < 0.1 nM | – |
| B27 | – | – | Kd [2]: 191 nM |
| B28 | – | – | Kd [3]: 603 nM |
| B29 | 2.02 nM | – | – |
| B30 | – | < 0.1 nM | – |
